How the values were obtained:
Test in all cases: ELISA-like plate assay, captured BMP-7 from conditioned media, receptor-Fc detection
[1] = target: T1, ActRIIa receptor-Fc fusion (UniProt P27037 20-134, limits assumed)
T1 construct: BMP receptor-Fc fusion used at 5 ug/mL

[2] = target: T2, BMPRII receptor-Fc fusion (UniProt Q13873 27-151, limits assumed)
T2 construct: BMP receptor-Fc fusion used at 5 ug/mL
T2 sequence (looked up): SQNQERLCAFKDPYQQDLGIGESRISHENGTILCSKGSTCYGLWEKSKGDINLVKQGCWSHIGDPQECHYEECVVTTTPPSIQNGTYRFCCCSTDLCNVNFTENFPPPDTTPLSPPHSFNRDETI

[3] = target: T3, BMPRIa receptor-Fc fusion (UniProt P36894 24-152, limits assumed)
T3 construct: also called ALK-3
T3 sequence (P36894 24-152 limits assumed): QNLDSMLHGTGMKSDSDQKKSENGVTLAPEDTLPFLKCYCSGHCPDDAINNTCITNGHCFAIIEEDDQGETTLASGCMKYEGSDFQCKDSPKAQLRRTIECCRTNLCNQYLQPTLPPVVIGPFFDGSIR

[4] = target: T4, BMPRIb receptor-Fc fusion (UniProt O00238 14-126)
T4 construct: BMP receptor-Fc fusion used at 5 ug/mL; also called ALK-6
T4 sequence (looked up): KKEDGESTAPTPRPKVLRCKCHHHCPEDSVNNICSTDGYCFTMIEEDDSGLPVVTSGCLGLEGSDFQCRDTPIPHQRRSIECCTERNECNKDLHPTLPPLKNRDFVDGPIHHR

T1 sequence (P27037 20-134 limits assumed): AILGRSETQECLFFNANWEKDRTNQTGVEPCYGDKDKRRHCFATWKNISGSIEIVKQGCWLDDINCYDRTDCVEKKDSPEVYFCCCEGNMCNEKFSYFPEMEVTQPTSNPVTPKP

B1: BMP-7 variant E60H (ligand)
chain: STGGKQRSQNRSKTPKNQEALRMASVAENSSSDQRQACKKHELYVSFRDLGWQDWIIAPHGYAAYYCEGECAFPLNSYMNATNHAIVQTLVHFINPETVPKPCCAPTQLNAISVLYFDDSSNVILKKYRNMVVRACGCH
notes: In conditioned media; numbering on mature BMP-7
- ActRIIa binding (relative to wild type = 1.0) [1]: 0.86 relative to wild type
- BMPRII binding (relative to wild type = 1.0) [2]: 1.25 relative to wild type
- BMPRIa binding (relative to wild type = 1.0) [3]: 0.34 relative to wild type
- BMPRIb binding (relative to wild type = 1.0) [4]: 0.42 relative to wild type

B2: BMP-7 variant F93A (ligand)
chain: STGGKQRSQNRSKTPKNQEALRMASVAENSSSDQRQACKKHELYVSFRDLGWQDWIIAPEGYAAYYCEGECAFPLNSYMNATNHAIVQTLVHAINPETVPKPCCAPTQLNAISVLYFDDSSNVILKKYRNMVVRACGCH
notes: as for B1
- ActRIIa binding (relative to wild type = 1.0) [1]: 0.11 relative to wild type
- BMPRIa binding (relative to wild type = 1.0) [3]: 0.1 relative to wild type
- BMPRIb binding (relative to wild type = 1.0) [4]: 0.24 relative to wild type

B3: BMP-7 variant E60P (ligand)
chain: STGGKQRSQNRSKTPKNQEALRMASVAENSSSDQRQACKKHELYVSFRDLGWQDWIIAPPGYAAYYCEGECAFPLNSYMNATNHAIVQTLVHFINPETVPKPCCAPTQLNAISVLYFDDSSNVILKKYRNMVVRACGCH
notes: as for B1
- ActRIIa binding (relative to wild type = 1.0) [1]: 0.94 relative to wild type
- BMPRII binding (relative to wild type = 1.0) [2]: 1.01 relative to wild type
- BMPRIa binding (relative to wild type = 1.0) [3]: 0.47 relative to wild type
- BMPRIb binding (relative to wild type = 1.0) [4]: 0.53 relative to wild type

B4: BMP-7 variant L90R (ligand)
chain: STGGKQRSQNRSKTPKNQEALRMASVAENSSSDQRQACKKHELYVSFRDLGWQDWIIAPEGYAAYYCEGECAFPLNSYMNATNHAIVQTRVHFINPETVPKPCCAPTQLNAISVLYFDDSSNVILKKYRNMVVRACGCH
notes: as for B1
- ActRIIa binding (relative to wild type = 1.0) [1]: 0.47 relative to wild type

B5: BMP-7 variant F73D (ligand)
chain: STGGKQRSQNRSKTPKNQEALRMASVAENSSSDQRQACKKHELYVSFRDLGWQDWIIAPEGYAAYYCEGECADPLNSYMNATNHAIVQTLVHFINPETVPKPCCAPTQLNAISVLYFDDSSNVILKKYRNMVVRACGCH
notes: as for B1
- ActRIIa binding (relative to wild type = 1.0) [1]: 2.5 relative to wild type
- BMPRII binding (relative to wild type = 1.0) [2]: 3.05 relative to wild type
- BMPRIa binding (relative to wild type = 1.0) [3]: 0.33 relative to wild type
- BMPRIb binding (relative to wild type = 1.0) [4]: 0.64 relative to wild type

B6: BMP-7 variant F73E (ligand)
chain: STGGKQRSQNRSKTPKNQEALRMASVAENSSSDQRQACKKHELYVSFRDLGWQDWIIAPEGYAAYYCEGECAEPLNSYMNATNHAIVQTLVHFINPETVPKPCCAPTQLNAISVLYFDDSSNVILKKYRNMVVRACGCH
notes: as for B1
- ActRIIa binding (relative to wild type = 1.0) [1]: 1.87 relative to wild type
- BMPRII binding (relative to wild type = 1.0) [2]: 1.77 relative to wild type
- BMPRIa binding (relative to wild type = 1.0) [3]: 0.55 relative to wild type
- BMPRIb binding (relative to wild type = 1.0) [4]: 1.23 relative to wild type

B7: BMP-7 variant W52P (ligand)
chain: STGGKQRSQNRSKTPKNQEALRMASVAENSSSDQRQACKKHELYVSFRDLGPQDWIIAPEGYAAYYCEGECAFPLNSYMNATNHAIVQTLVHFINPETVPKPCCAPTQLNAISVLYFDDSSNVILKKYRNMVVRACGCH
notes: as for B1
- BMPRIb binding (relative to wild type = 1.0) [4]: 0.14 relative to wild type

B8: BMP-7 variant S77H (ligand)
chain: STGGKQRSQNRSKTPKNQEALRMASVAENSSSDQRQACKKHELYVSFRDLGWQDWIIAPEGYAAYYCEGECAFPLNHYMNATNHAIVQTLVHFINPETVPKPCCAPTQLNAISVLYFDDSSNVILKKYRNMVVRACGCH
notes: as for B1
- ActRIIa binding (relative to wild type = 1.0) [1]: 0.42 relative to wild type
- BMPRIa binding (relative to wild type = 1.0) [3]: 0.29 relative to wild type
- BMPRIb binding (relative to wild type = 1.0) [4]: 0.3 relative to wild type

B9: BMP-7 variant F117S (ligand)
chain: STGGKQRSQNRSKTPKNQEALRMASVAENSSSDQRQACKKHELYVSFRDLGWQDWIIAPEGYAAYYCEGECAFPLNSYMNATNHAIVQTLVHFINPETVPKPCCAPTQLNAISVLYSDDSSNVILKKYRNMVVRACGCH
notes: as for B1
- ActRIIa binding (relative to wild type = 1.0) [1]: 0.11 relative to wild type
- BMPRIa binding (relative to wild type = 1.0) [3]: 0.15 relative to wild type

B10: BMP-7 variant F73K (ligand)
chain: STGGKQRSQNRSKTPKNQEALRMASVAENSSSDQRQACKKHELYVSFRDLGWQDWIIAPEGYAAYYCEGECAKPLNSYMNATNHAIVQTLVHFINPETVPKPCCAPTQLNAISVLYFDDSSNVILKKYRNMVVRACGCH
notes: as for B1
- ActRIIa binding (relative to wild type = 1.0) [1]: 0.61 relative to wild type
- BMPRII binding (relative to wild type = 1.0) [2]: 0.38 relative to wild type
- BMPRIa binding (relative to wild type = 1.0) [3]: 0.69 relative to wild type
- BMPRIb binding (relative to wild type = 1.0) [4]: 1.14 relative to wild type

B11: BMP-7 variant L115A (ligand)
chain: STGGKQRSQNRSKTPKNQEALRMASVAENSSSDQRQACKKHELYVSFRDLGWQDWIIAPEGYAAYYCEGECAFPLNSYMNATNHAIVQTLVHFINPETVPKPCCAPTQLNAISVAYFDDSSNVILKKYRNMVVRACGCH
notes: as for B1
- BMPRIb binding (relative to wild type = 1.0) [4]: 0.17 relative to wild type

B12: BMP-7 variant F73Q (ligand)
chain: STGGKQRSQNRSKTPKNQEALRMASVAENSSSDQRQACKKHELYVSFRDLGWQDWIIAPEGYAAYYCEGECAQPLNSYMNATNHAIVQTLVHFINPETVPKPCCAPTQLNAISVLYFDDSSNVILKKYRNMVVRACGCH
notes: as for B1
- ActRIIa binding (relative to wild type = 1.0) [1]: 1.87 relative to wild type
- BMPRII binding (relative to wild type = 1.0) [2]: 2.85 relative to wild type
- BMPRIa binding (relative to wild type = 1.0) [3]: 1.05 relative to wild type
- BMPRIb binding (relative to wild type = 1.0) [4]: 1.71 relative to wild type

B13: BMP-7 variant R48E (ligand)
chain: STGGKQRSQNRSKTPKNQEALRMASVAENSSSDQRQACKKHELYVSFEDLGWQDWIIAPEGYAAYYCEGECAFPLNSYMNATNHAIVQTLVHFINPETVPKPCCAPTQLNAISVLYFDDSSNVILKKYRNMVVRACGCH
notes: as for B1
- ActRIIa binding (relative to wild type = 1.0) [1]: 0.34 relative to wild type
- BMPRIa binding (relative to wild type = 1.0) [3]: 0.45 relative to wild type

B14: BMP-7 variant W55A (ligand)
chain: STGGKQRSQNRSKTPKNQEALRMASVAENSSSDQRQACKKHELYVSFRDLGWQDAIIAPEGYAAYYCEGECAFPLNSYMNATNHAIVQTLVHFINPETVPKPCCAPTQLNAISVLYFDDSSNVILKKYRNMVVRACGCH
notes: as for B1
- BMPRIa binding (relative to wild type = 1.0) [3]: 0.1 relative to wild type
- BMPRIb binding (relative to wild type = 1.0) [4]: 0.23 relative to wild type

B15: BMP-7 variant L21E (ligand)
chain: STGGKQRSQNRSKTPKNQEAERMASVAENSSSDQRQACKKHELYVSFRDLGWQDWIIAPEGYAAYYCEGECAFPLNSYMNATNHAIVQTLVHFINPETVPKPCCAPTQLNAISVLYFDDSSNVILKKYRNMVVRACGCH
notes: as for B1
- ActRIIa binding (relative to wild type = 1.0) [1]: 0.25 relative to wild type
- BMPRIa binding (relative to wild type = 1.0) [3]: 0.12 relative to wild type
- BMPRIb binding (relative to wild type = 1.0) [4]: 0.16 relative to wild type

B16: BMP-7 variant F73N (ligand)
chain: STGGKQRSQNRSKTPKNQEALRMASVAENSSSDQRQACKKHELYVSFRDLGWQDWIIAPEGYAAYYCEGECANPLNSYMNATNHAIVQTLVHFINPETVPKPCCAPTQLNAISVLYFDDSSNVILKKYRNMVVRACGCH
notes: as for B1
- ActRIIa binding (relative to wild type = 1.0) [1]: 0.89 relative to wild type
- BMPRII binding (relative to wild type = 1.0) [2]: 0.85 relative to wild type
- BMPRIa binding (relative to wild type = 1.0) [3]: 0.51 relative to wild type
- BMPRIb binding (relative to wild type = 1.0) [4]: 0.95 relative to wild type
